Drawing on article doi:10.1101/583088, this text covers stoichiometry N for one substance.

This assay has as its target 3-methylaspartate ammonia lyase from Citrobacter amalonaticus (Citrobacter amalonaticus) (UniProt O66145). Briefly: SEC. (Size exclusion chromatography separates by hydrodynamic size, large species first.)

What is called stoichiometry N is the number of molecules, sites or subunits per partner or assembly. Turning to “3-methylaspartate ammonia lyase from Citrobacter amalonaticus (from UniProt O66145 1-413) (enzyme)”, the stoichiometry N is 2.
